Data on three molecules can be found in PMC3644210 (Biochemical pharmacology, 2012).

For orientation: IC50 means the point on the concentration scale where inhibition reaches its midpoint.

Ends that are not written are not given here.

The conditions of data set [1]: comparison value; source not explicitly stated; cited from earlier work.
Another data set concerns the target Kv1.1 (Homo sapiens, UniProt Q09470). It counts as cell-based.
For the next data set, the target named is Kv1.1 E353T (UniProt Q09470).
A further data set addresses Kv1.1 Y379V (UniProt Q09470).
In another data set the target is Kv1.5 R487T (UniProt P22460).
Another data set addresses Kv1.5 (wildtype) (UniProt P22460).

Chain of Kv1.1 (Q09470 whole entry): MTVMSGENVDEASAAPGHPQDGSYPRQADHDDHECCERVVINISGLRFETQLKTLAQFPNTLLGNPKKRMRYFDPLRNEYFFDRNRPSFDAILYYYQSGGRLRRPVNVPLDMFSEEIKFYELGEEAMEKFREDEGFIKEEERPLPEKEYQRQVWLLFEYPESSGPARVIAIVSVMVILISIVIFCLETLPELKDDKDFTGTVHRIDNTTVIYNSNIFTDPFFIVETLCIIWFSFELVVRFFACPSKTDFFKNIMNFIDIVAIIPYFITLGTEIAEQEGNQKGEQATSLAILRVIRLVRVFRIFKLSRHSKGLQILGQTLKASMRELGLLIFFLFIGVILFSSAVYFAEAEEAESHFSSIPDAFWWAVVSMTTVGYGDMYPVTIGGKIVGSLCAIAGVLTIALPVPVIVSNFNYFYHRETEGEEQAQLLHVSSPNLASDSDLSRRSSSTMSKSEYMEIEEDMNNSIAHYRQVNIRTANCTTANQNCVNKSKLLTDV
Chain of Kv1.5 (wildtype) (P22460 whole entry): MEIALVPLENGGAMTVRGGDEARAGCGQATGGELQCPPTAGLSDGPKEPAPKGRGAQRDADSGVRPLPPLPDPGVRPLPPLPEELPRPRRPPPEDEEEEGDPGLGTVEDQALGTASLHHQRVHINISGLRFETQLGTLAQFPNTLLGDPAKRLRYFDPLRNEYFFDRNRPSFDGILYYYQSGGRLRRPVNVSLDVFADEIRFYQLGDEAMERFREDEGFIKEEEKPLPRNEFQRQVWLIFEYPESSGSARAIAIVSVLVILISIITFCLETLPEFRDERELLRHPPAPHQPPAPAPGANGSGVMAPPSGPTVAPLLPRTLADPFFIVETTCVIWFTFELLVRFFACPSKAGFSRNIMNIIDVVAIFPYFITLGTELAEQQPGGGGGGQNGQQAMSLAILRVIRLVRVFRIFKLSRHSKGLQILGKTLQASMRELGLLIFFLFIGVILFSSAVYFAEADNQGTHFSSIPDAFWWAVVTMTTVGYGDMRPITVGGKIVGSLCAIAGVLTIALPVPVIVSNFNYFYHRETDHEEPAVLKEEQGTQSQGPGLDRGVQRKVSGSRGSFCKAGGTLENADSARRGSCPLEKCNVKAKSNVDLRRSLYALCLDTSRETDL
Chain of Kv1.1 Y379V (Q09470 whole entry Y379V): as the sequence (Q09470 whole entry) above, with Y379V counted along it
Chain of Kv1.1 E353T (Q09470 whole entry E353T): as the sequence (Q09470 whole entry) above, with E353T counted along it
Chain of Kv1.5 R487T (P22460 whole entry R487T): as the sequence (P22460 whole entry) above, with R487T counted along it

As to “OcyC8: κ-KTx2 scorpion toxin from Opisthacanthus cayaporum (YDACVNACLEHHPNVRECEEACKNPVPP; UniProt P86110 43-70, looked up)”, the “pI of OcyC8” value in data set [1] is listed as 4.92.
Regarding `CC[N+](CC)(CC)CC` [TEA, Tetraethylammonium], the “reduction of the K+ current by TEA” value on Kv1.1 (0.4 mM TEA, n = 6, 250-ms steps to +10 mV) is 55 ± 2%. On Kv1.1 (read-out: IC50 of TEA on Kv1.1, Kv1.1, source of the IC50 not stated), the half-inhibitory concentration (IC50) was 400 µM.
For the molecule SCKKECSGSRRTKKCMQKCNREHGH-NH2 (ends and bridges not checked) [Hl15-1-1 (Heterometrus laoticus toxin)], the percent inhibition of the K+ efflux by 30 μM Hl15-1-1 (whole-cell patch clamp) with Kv1.1 E353T was 32%; with Kv1.1 Y379V, 6.1%. Besides, the percent inhibition of the K+ current by 30 μM Hl15-1-1 (whole-cell patch clamp) with Kv1.5 R487T stood at 26.3%; in the data set with Kv1.5 (wildtype), 1%.
